Test results taken from CN104974246A (INST PASTEUR SHANGHAI CAS, dated 2015).

How the values were obtained:
Experiment in all cases: cell-based or functional assay
[1] = molecular target: HCV 1b亚型 PR52B6M 毒株的 E2蛋白 (on virus) (hepatitis C virus subtype 1b, strain …)
[2] = molecular target: HCV 1b亚型 PR79 毒株的 E2蛋白 (on virus) (hepatitis C virus subtype 1b, strain …)
[3] = molecular target: T1, HCV 2a亚型 JFH1 毒株的 E2蛋白 (on virus) (hepatitis C virus subtype 2a, strain …, UniProt Q99IB8 384-750)
T1 sequence: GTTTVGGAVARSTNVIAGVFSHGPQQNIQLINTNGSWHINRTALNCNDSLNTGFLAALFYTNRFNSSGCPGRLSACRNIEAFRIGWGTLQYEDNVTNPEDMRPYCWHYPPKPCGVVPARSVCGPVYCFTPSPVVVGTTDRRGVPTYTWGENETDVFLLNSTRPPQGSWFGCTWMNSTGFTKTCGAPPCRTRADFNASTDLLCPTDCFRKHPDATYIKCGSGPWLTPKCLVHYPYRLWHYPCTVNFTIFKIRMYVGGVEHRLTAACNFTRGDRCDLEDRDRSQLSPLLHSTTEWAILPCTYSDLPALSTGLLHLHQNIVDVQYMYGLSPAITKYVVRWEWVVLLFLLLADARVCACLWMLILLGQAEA

[4] = molecular target: HCV 2a亚型 PR79 毒株的 E2蛋白 (on virus) (hepatitis C virus subtype 2a, strain …)

Measured: 对 HCV真病毒的抑制率 (真病毒中和试验)

B1: 全人单克隆抗体7F2 (antibody, V domains shown)
VH: QVQLQQWGAGLLKPSETLSLTCAVYGGSFSGYYWNWIRQPPGKGLEWIGEINPRGTANHNPSLKSRVTISVGTSRNQFSLKLRAVTAADTAVYYCARGIHDTLTGYLAFYFDYWGQGTPVTVSS
VL: DIQMTQSPSSLSASVGDTVTITCRASQNIDRHLNWYQQKAGKAPKVLIYAASGLQSGVSSRFSGSGSGTEFTLTINDLEPEDFATYYCQQYYDTLGYTFGQGTKVEIK
> 90%: [1] | [2] | [3] | [4]
